# Assay results taken from IntAct's records for PubMed 16720724.
# B1: Activin receptor type-1B (Homo sapiens), P36896 (parent)
# chain: MAESAGASSFFPLVVLLLAGSGGSGPRGVQALLCACTSCLQANYTCETDGACMVSIFNLDGMEHHVRTCIPKVELVPAGKPFYCLSSEDLRNTHCCYTDYCNRIDLRVPSGHLKEPEHPSMWGPVELVGIIAGPVFLLFLIIIIVFLVINYHQRVYHNRQRLDMEDPSCEMCLSKDKTLQDLVYDLSTSGSGSGLPLFVQRTVARTIVLQEIIGKGRFGEVWRGRWRGGDVAVKIFSSREERSWFREAEIYQTVMLRHENILGFIAADNKDNGTWTQLWLVSDYHEHGSLFDYLNRYTVTIEGMIKLALSAASGLAHLHMEIVGTQGKPGIAHRDLKSKNILVKKNGMCAIADLGLAVRHDAVTDTIDIAPNQRVGTKRYMAPEVLDETINMKHFDSFKCADIYALGLVYWEIARRCNSGGVHEEYQLPYYDLVPSDPSIEEMRKVVCDQKLRPNIPNWWQSYEALRVMGKMMRECWYANGAARLTALRIKKTLSQLSVQEDVKI
# Variants of: B1
# Settings: with smad7_human SMAD7, O15105
# Chain of smad7_human SMAD7, O15105 (O15105 whole entry): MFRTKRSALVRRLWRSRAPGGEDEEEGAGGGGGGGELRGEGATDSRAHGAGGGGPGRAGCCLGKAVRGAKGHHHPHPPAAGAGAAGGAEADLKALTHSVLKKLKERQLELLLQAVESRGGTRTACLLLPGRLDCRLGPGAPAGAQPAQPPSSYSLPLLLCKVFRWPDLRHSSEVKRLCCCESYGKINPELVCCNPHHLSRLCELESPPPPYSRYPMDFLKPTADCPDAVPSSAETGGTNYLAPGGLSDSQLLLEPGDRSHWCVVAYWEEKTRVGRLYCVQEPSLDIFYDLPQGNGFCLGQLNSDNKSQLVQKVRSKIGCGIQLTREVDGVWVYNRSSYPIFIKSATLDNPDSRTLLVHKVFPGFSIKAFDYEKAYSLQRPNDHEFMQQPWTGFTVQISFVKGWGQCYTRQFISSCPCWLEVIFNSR
row,Variant,effect of a mutation on the interaction
1,MAESAGASSFFPLVVLLLAGSGGSGPRGVQALLCACTSCLQANYTCETDGACMVSIFNLDGMEHHVRTCIPKVELVPAGKPFYCLSSEDLRNTHCCYTDYCNRIDLRVPSGHLKEPEHPSMWGPVELVGIIAGPVFLLFLIIIIVFLVINYHQRVYHNRQRLDMEDPSCEMCLSKDKTLQDLVYDLSTSGSGSGLPLFVQRTVAREIVLQEIIGKGRFGEVWRGRWRGGDVAVKIFSSREERSWFREAEIYQTVMLRHENILGFIAADNKDNGTWTQLWLVSDYHEHGSLFDYLNRYTVTIEGMIKLALSAASGLAHLHMEIVGTQGKPGIAHRDLKSKNILVKKNGMCAIADLGLAVRHDAVTDTIDIAPNQRVGTKRYMAPEVLDETINMKHFDSFKCADIYALGLVYWEIARRCNSGGVHEEYQLPYYDLVPSDPSIEEMRKVVCDQKLRPNIPNWWQSYEALRVMGKMMRECWYANGAARLTALRIKKTLSQLSVQEDVKI [T206E],increasing interaction
